For experiment [1], the target named is T1, binding of LAG-3 to MHC class II molecules (Homo sapiens, UniProt P18627).
T1 construct: purchased R&D Systems, Inc
The experiment in a line: LAG-3/MHC class II binding test (LAG-3-Fc binding to Raji cells, flow cytometry). To be noted: rat antibodies evaluated at 10 μg/mL. How it is done: This was conducted according to a previous report (Non Patent Literature 8). That is, 20 μL/well of LAG-3-Fc (manufactured by R&D Systems, Inc.) diluted with RPMI1640 containing 10% FBS to 25 nM was added to a 96-well U-bottom microplate, and 20 μL/well of the hybridoma culture supernatant was added thereto, followed by stirring and standing at 4° C. for 20 minutes. Then, 10 µL/well (2.5×10^5 cells/well) of Raji cells, which endogenously highly express MHC class II molecules, was added thereto, followed by stirring and standing at 4° C. for a further 30 minutes. The cells were washed twice with PBS or a FACS buffer, then an Anti-Human IgG PE conjugate (manufactured by Jackson ImmunoResearch Laboratories, Inc.) diluted 200-fold with a FACS buffer was added thereto for suspension, followed by standing at 4° C. for 20 minutes. After washing with PBS or a FACS buffer, the cells were resuspended in PBS containing 1 to 2% paraformaldehyde, followed by detection using a flow cytometer (CantoII: manufactured by Becton, Dickinson and Company or FC500: manufactured by Beckman Coulter Inc). The data was analyzed using FlowJo (manufactured by Tree Star Inc.), and the percentage of inhibition was calculated by the following formula. Percentage of inhibition (%)=100−(A−B)/(C−B)×100 • A: Mean fluorescence intensity of each sample well • B: Mean fluorescence intensity of background
When adding LAG-3-Fc and the antibody, 20 μL of a medium was added each time. Except for that, the same operation as in the sample well was performed. • C: Mean fluorescence intensity of maximum binding
When adding the antibody, 20 μL of a medium was added thereto.
(In general: Flow cytometry measures light scatter and fluorescence of single cells or particles in a stream.)

For experiment [2], the target named is T2, binding of LAG-3 to MHC class II molecules (293T-hLAG-3 cells / Raji cells) (Homo sapiens, UniProt P18627).
T2 construct: expressed in transfected cells; host or cells: 293T cells, transient transfection (Lipofectamine 2000)
T2 sequence (P18627 23-525): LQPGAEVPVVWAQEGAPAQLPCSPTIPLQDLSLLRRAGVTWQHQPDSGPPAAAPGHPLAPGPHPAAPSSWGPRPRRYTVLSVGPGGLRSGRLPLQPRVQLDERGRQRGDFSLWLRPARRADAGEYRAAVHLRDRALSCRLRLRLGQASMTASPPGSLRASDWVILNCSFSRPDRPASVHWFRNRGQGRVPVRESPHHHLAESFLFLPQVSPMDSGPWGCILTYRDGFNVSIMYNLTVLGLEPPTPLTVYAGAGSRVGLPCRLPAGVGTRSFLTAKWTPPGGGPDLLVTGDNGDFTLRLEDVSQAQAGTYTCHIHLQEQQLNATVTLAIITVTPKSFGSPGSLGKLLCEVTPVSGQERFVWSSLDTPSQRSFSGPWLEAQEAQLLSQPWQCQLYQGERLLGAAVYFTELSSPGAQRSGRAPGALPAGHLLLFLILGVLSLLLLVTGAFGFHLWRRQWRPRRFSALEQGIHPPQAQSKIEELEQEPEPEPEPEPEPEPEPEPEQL
The experiment in a line: 293T-hLAG-3/Raji cell adhesion test. In kind it is cell-based. The note with it: 10 μg/mL. An excerpt: In the LAG-3/MHC class II binding test according to Example 2)-3, the binding of the secondary antibody Anti-Human IgG PE conjugate for detecting binding of LAG-3-Fc to Raji cells could be inhibited by steric hindrance caused by binding of the anti-LAG-3 antibody to LAG-3-Fc, and thus the possibility of apparently showing a low fluorescence intensity cannot be completely excluded, despite the antibody not actually directly inhibiting the binding of LAG-3/MHC class II. Therefore, as an evaluation system without using a secondary antibody for detection, the following 293T-hLAG-3/Raji cell adhesion test system was constructed to evaluate the antibody.
Human LAG-3 expression plasmid pcDNA3.1/hLAG-3 was introduced into 293T cells using Lipofectamine 2000 (manufactured by Life Technologies Corp.), and the cells were inoculated onto a BioCoat poly-D-lysine-coated 96-well microplate (manufactured by Becton, Dickinson and Company) and cultured overnight. Meanwhile, Raji cells were labeled in a medium (RPMI1640 containing 10% FBS) with fluorescent dye BCECF-AM (manufactured by DOJINDO LABORATORIES, used at 10 μM) at 37° C. for 1 hour, followed by washing and then suspending in a medium to 1.6×10^6 cells/mL. After the transfection, the medium of the cells (293T-hLAG-3 cells) cultured overnight was removed, and 50 μL/well of a medium and 25 μL/well of an antibody solution were added thereto, followed by pre-incubation at 37° C. for 30 minutes. Thereafter, 25 μL/well of the BCECF-AM labeled Raji cells was added thereto, followed by centrifugation at 900 rpm for 30 seconds and incubation at 37° C. for 1 hour. After the reaction, the well was washed with medium two to three times to remove nonadherent cells, and the cells were lysed in 100 µL/well of a Tris buffer (25 mM, pH 8.0) containing 0.1% NP-40, to measure the fluorescence intensity of the well with a plate reader (ENVISION: manufactured by PerkinElmer Inc). The percentage of inhibition was calculated by the following formula.
Percentage of inhibition (%)=100−(A−B)/(C−B)×100 • A: Fluorescence intensity of each sample well • B: Fluorescence intensity of background
When adding the Raji cells and the antibody, a medium was added thereto. Except for that, the same operation as in the sample well was performed. • C: Fluorescence intensity of maximum binding
When adding the antibody, a medium was added thereto.

T1 sequence (P18627 with tags, fused parts or gaps limits assumed): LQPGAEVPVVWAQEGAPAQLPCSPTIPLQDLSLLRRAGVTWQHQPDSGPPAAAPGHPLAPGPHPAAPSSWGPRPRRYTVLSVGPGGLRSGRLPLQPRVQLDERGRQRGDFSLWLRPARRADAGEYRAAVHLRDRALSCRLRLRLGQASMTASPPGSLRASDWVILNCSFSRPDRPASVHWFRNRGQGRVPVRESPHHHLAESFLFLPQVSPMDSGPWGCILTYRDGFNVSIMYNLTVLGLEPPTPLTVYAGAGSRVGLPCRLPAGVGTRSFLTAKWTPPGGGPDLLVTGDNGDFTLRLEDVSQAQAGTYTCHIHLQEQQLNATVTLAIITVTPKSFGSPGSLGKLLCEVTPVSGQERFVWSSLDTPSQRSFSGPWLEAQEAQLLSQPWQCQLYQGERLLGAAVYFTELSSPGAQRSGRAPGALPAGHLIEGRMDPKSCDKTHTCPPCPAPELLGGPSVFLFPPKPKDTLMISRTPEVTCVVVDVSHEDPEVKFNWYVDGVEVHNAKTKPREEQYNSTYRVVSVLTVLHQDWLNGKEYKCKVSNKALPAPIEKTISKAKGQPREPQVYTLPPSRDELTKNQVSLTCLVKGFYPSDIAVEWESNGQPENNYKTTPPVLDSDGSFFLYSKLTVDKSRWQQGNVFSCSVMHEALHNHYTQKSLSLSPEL

B1: rLA225: anti-human LAG-3 rat monoclonal antibody; heavy chain variable region SEQ ID No: 10, light chain variable region SEQ ID No: 12 (antibody, listed as Rattus norvegicus, V domains shown)
VH: EVQLVESGGGLVQPGRSMKLSCVASGFTFSNYYMAWVRQAPTKGLEWVASISTGGGNTYYRDSVKGRFTISRDNAKSTLYLQMDSLRSEDTATYYCARPPYGYNYGWFTYWGQGTLVTVSS
VL: DIQMTQSPASLSASLGETVTIECRASEDIHNGLVWYQQKPGKSPQLLIYNANSMHTGVPSRFSGSGSGTQYSLKINSLQSEDVASYFCQQYYNYPRTFGGGTKLELKRA
With B1, the “inhibitory activity in the LAG-3/MHC class II binding test” value in experiment [1] is given as “almost no inhibitory activity”. Further, the “inhibitory activity in the 293T-hLAG-3/Raji cell adhesion test” value in experiment [2] is on record as “almost no inhibitory activity”.

B2: rLA1264: anti-human LAG-3 rat monoclonal antibody; heavy chain variable region SEQ ID No: 18, light chain variable region SEQ ID No: 20 (antibody, listed as Rattus norvegicus, V domains shown)
VH: EVQLVESGGGLVQPGRSLKLSCAASGFTFSSYYMAWVRQAPTKGLEWVAYISNGGYSTYYRDSVKGRFTISRENAKSTLYLQMDSLRSEDTATYYCTITDHSGYRFTYWGQGTLVTVSS
VL: DIQMTQSPSLLSASVGDRVTLSCKASQSIYNSLAWYQQKLGEAPKLLIYDANSLQTGIPSRFSGSGSGTDFTLTISSLQPEDVATYFCQKYYSGNTFGAGTKLELKRA
Take B2: the “inhibitory activity in the LAG-3/MHC class II binding test” value in experiment [1] is recorded as “almost no inhibitory activity”. Further, the “inhibitory activity in the 293T-hLAG-3/Raji cell adhesion test” value in experiment [2] was “almost no inhibitory activity”.

B3: rLA204: anti-human LAG-3 rat monoclonal antibody; heavy chain variable region SEQ ID No: 2, light chain variable region SEQ ID No: 4 (antibody, listed as Rattus norvegicus, V domains shown)
VH: EVELVESGGGLVQPGRSMKLSCAASGFTFRTYGMAWVRQAPTKGLEWVASISTGGGSTYYRDSVKGRFTISRDNAKSTLYLQMDSLRSEDTATYYCTTDLINYPGIGGFAFWGQGTLVTVSS
VL: NIVMTQSPKSMSISVGDRVTMNCKASQNVYNNIAWYQQKPGKSPKLLIYYASNRYTGVPDRFTGSGSGTDFTLTIHSVQAEDAAFYYCQRLYNSPPTFGGGTKLELKRA
As to B3, in experiment [1], the “inhibitory activity in the LAG-3/MHC class II binding test” value is “almost no inhibitory activity”. In addition, the “inhibitory activity in the 293T-hLAG-3/Raji cell adhesion test” value in experiment [2] was “almost no inhibitory activity”.

B4: rLA212: anti-human LAG-3 rat monoclonal antibody; heavy chain variable region SEQ ID No: 6, light chain variable region SEQ ID No: 8 (antibody, listed as Rattus norvegicus, V domains shown)
VH: EVQLVESGGGLVQPGRSLKLSCAASGFTYRSYVMAWVRQAPTRGLEWVASISTGGGNTYYRDSVKGRFTISRDNAKNTLYLQMDSLRSEDTATYYCAEDMSNSGYGLFDYWGQGVMVTVSS
VL: NIVMTQSPKSMSISVGDRVTMNCKAGQNVDNNIAWYQKKPGQSPKLLIYYASNRNTGVPDRFTGGGYGTDFTLTINSVQAEDAAFYYCQRISNSPYTFGAGTELELKRA
As to B4, the “inhibitory activity in the LAG-3/MHC class II binding test” value in experiment [1] is “almost no inhibitory activity”. In addition, the “inhibitory activity in the 293T-hLAG-3/Raji cell adhesion test” value in experiment [2] is recorded as “almost no inhibitory activity”.

B5: rLA869: anti-human LAG-3 rat monoclonal antibody; heavy chain variable region SEQ ID No: 14, light chain variable region SEQ ID No: 16 (antibody, listed as Rattus norvegicus, V domains shown)
VH: EVQLVESGGGLVQPGRSLKLSCAASGFTYRTYVMAWVRQGPTQGLEWVASISTGGVSTYYRDSVKGRFTISRDNAKNTLYLQMDSLRSEDTATYYCAKDMLNGYNSQGLFDYWGQGVMVTVSS
VL: NIVMTQSPKSMSISVGDRVTMNCRASQNVDNTIAWYQQKPGQSPKLLIYFASDRYTGVPDRFTGGGYGTDFTLTINSVQAEDAAFYYCQRIYNSPLTFGSGTKLEIRRA
B5: in experiment [1], the “inhibitory activity in the LAG-3/MHC class II binding test” value is recorded as “almost no inhibitory activity”. Also, in experiment [2], the “inhibitory activity in the 293T-hLAG-3/Raji cell adhesion test” value is recorded as “almost no inhibitory activity”.

The values are drawn from US12145987B2, “Method for depleting cytotoxic T cells using an anti-LAG-3 antibody composition” (Daiichi Sankyo Company, Limited, priority 2017, dated 2024).
